Test results as given in patent CN115141270A (SHENZHEN KANGMAI BIOTECHNOLOGY CO LTD, dated 2022).

Experiments:
[1] = target: SARS-CoV-2 (中国新型冠状病毒, MT226610) live virus, spike glycoprotein (SARS-CoV-2); test: cell-based or functional assay
[2] = target: T1, SARS-CoV-2 RBD结构域蛋白 (序列来自NC_045512.2, 自行表达) (SARS-CoV-2, UniProt P0DTC2 319-541); test: ELISA, RBD domain protein coated at 2 μg/ml, antibody titrated from 10 μg/mL
T1 construct: domain: RBD

[3] = target: T2, SARS-CoV-2 S蛋白(ECD) (购自金斯瑞, Z03481) (SARS-CoV-2, UniProt P0DTC2 14-1213)
[4] = target: T2, SARS-CoV-2 S蛋白(ECD) (购自金斯瑞, Z03481); test: ELISA, S protein (ECD) coated at 2 μg/ml, antibody titrated from 10 μg/mL

B1: 抗体nCoV617 (anti-coronavirus spike glycoprotein human monoclonal antibody) (antibody, V domains shown)
VH: QVQLVESGGGVVQPGRSLRLSCAASGFTFSSYAMHWVRQAPGKGLEWVALISYDGSNKYYADSVKGRFTISRDNSKNTLYLQMNSLRAEDTAVYYCARGLGLRFLEWPISSYWGQGTLVTVSS
VL: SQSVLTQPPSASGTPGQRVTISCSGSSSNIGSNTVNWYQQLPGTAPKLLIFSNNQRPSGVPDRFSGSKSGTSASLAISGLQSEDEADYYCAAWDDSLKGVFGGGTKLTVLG
notes: also called 抗S蛋白抗体; 抗冠状病毒刺突糖蛋白单克隆抗体
- IC50 (neutralisation of live virus on Vero E6 cells, cytopathic effect) [1]: 2.3 ng/mL
- EC50 [2]: 3 ng/mL
- Kd [3]: 8.02 nM
- EC50 [4]: 2 ng/mL
